± gives the uncertainty stated by the source.
Test: self-splicing fitness, log relative to wild type (ln ratio); higher = more splicing; Tetrahymena group I intron in knt gene, E. coli kanamycin selection, DiMSum; sequences stand for … in CUCUCU…GGAGGGAAAAGUUAUCAGGCAUGCACCUGGUAGCUAGUCUUUAAACCAAUAGAUUGCAUCGGUUUAAAAGGCAAGACCGUCAAAUUGCGGGAAAGGGGUCAACAGCCGUUCAGUACCAAGUCUCAGGGGAAACUUUGAGAUGGCCUUGCAAAGGGUAUGGUAAUAAGCUGACGGACAUGGUCCUAACCACGCAGCCAAGUCCUAAGUCAACAGAUCUUCUGUUGAUAUGGAUGCAGUUCACAGACUAAAUGUCGGUCGGGGAAGAUGUAUUCUUCUCAUAAGAUAUAGUCGGACCUCUCCUUAAUGGGAGCUAGCGGAUGAAGUGAUGCAACACUGGAGCCGCUGGGAACUAAUUUGUAUGCGAAAGUAUAUUGAUUAGUUUUGGAGUACUCGUGGUCG
Procedure, shortened: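 Library with all eight P1ex-region intron nucleotides randomised, intron inside the knt kanamycin-resistance gene on pET-22b(+), in E. coli BL21(DE3). Cells grew overnight at 37°C or 30°C on LB agar with or without 25 μg/mL kanamycin (plus 100 μg/mL carbenicillin, 50 μM IPTG, 0.2% rhamnose), in six replicate transformations. Pooled colonies were amplicon-sequenced on Illumina HiSeq 2500. DiMSum fitness is the error-weighted combination of wild-type-normalised replicate fold changes, kanamycin versus none.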

Sequence	self-splicing fitness (ln) (30 °C)	self-splicing fitness (ln) (37 °C)
CCAUAGCAAUAUUACGCGUU	-3.53 ± 0.23	-2.51 ± 0.24
CCAUAGCAAUAUUACGCUGG	-3.54 ± 0.19	-2.58 ± 0.2
CCAUAGCAAUAUUACGGAUC	-1.97 ± 0.41	-1.72 ± 0.32
CCAUAGCAAUAUUACGGAUG	-2.42 ± 0.11	-1.43 ± 0.11
CCAUAGCAAUAUUACGGCAC	–	-1.84 ± 0.28
CCAUAGCAAUAUUACGGCAG	-2.02 ± 0.14	-1.34 ± 0.17
CCAUAGCAAUAUUACGGCCU	-3.71 ± 0.37	–
CCAUAGCAAUAUUACGGCUA	-2.48 ± 0.25	-1.89 ± 0.28
CCAUAGCAAUAUUACGGUGC	-3.09 ± 0.17	-2.61 ± 0.25
CCAUAGCAAUAUUACGUAAA	-4.17 ± 0.2	-3.03 ± 0.32
CCAUAGCAAUAUUACGUCCA	-1.27 ± 0.18	-1.85 ± 0.33
CCAUAGCAAUAUUACGUCCG	-0.229 ± 0.077	0.347 ± 0.13
CCAUAGCAAUAUUACGUCUG	-1.4 ± 0.075	-0.687 ± 0.07
CCAUAGCAAUAUUACGUGGA	-2.2 ± 0.14	-2.16 ± 0.18
CCAUAGCAAUAUUACGUGGU	-4 ± 0.23	-1.73 ± 0.13
CCAUAGCAAUAUUACGUUUC	-3.12 ± 0.15	-0.309 ± 0.2
CCAUAGCAAUAUUACGUUUG	-1.68 ± 0.1	-0.897 ± 0.1
CCCAAGCAAUAUUACGAAGA	-3.32 ± 0.2	-2.59 ± 0.2
CCCAAGCAAUAUUACGAAUU	-3.33 ± 0.12	-2.87 ± 0.15
CCCAAGCAAUAUUACGACAA	-3.14 ± 0.17	-3.12 ± 0.22
CCCAAGCAAUAUUACGACCA	-4.66 ± 0.32	-2.27 ± 0.17
CCCAAGCAAUAUUACGAUGU	-3.53 ± 0.18	-2.04 ± 0.15
CCCAAGCAAUAUUACGCAUU	-3.82 ± 0.2	-2.04 ± 0.19
CCCAAGCAAUAUUACGCCGU	-3.66 ± 0.22	-2.21 ± 0.19
CCCAAGCAAUAUUACGCUAA	-3.05 ± 0.29	-1.23 ± 0.21

Sequence	self-splicing fitness (ln) (30 °C)	self-splicing fitness (ln) (37 °C)
CCCAAGCAAUAUUACGCUCC	–	-1.68 ± 0.42
CCCAAGCAAUAUUACGCUUG	-3.39 ± 0.18	-1.92 ± 0.17
CCCAAGCAAUAUUACGGACC	-2.96 ± 0.18	-2.29 ± 0.26
CCCAAGCAAUAUUACGGAGG	-1.95 ± 0.22	–
CCCAAGCAAUAUUACGGCUC	-2.28 ± 0.21	-2.59 ± 0.29
CCCAAGCAAUAUUACGGUCA	-2.13 ± 0.12	-2.22 ± 0.14
CCCAAGCAAUAUUACGGUGA	-1.27 ± 0.07	-1.16 ± 0.077
CCCAAGCAAUAUUACGGUUA	-2.28 ± 0.12	-2.38 ± 0.16
CCCAAGCAAUAUUACGUAAG	-3.05 ± 0.19	-1.87 ± 0.16
CCCAAGCAAUAUUACGUACA	-2.94 ± 0.16	-3.39 ± 0.23
CCCAAGCAAUAUUACGUAGU	-3.65 ± 0.2	-1.93 ± 0.14
CCCAAGCAAUAUUACGUCCA	-1.96 ± 0.14	-2.45 ± 0.23
CCCAAGCAAUAUUACGUGCG	-4.13 ± 0.21	-2.28 ± 0.18
CCCAAGCAAUAUUACGUGUU	-4.07 ± 0.18	-2.46 ± 0.13
CCCAAGCAAUAUUACGUUGG	-3.48 ± 0.14	-2.28 ± 0.13
CCCAAGCAAUAUUACGUUUA	-3.62 ± 0.14	-3.04 ± 0.18
CCCCAGCAAUAUUACGAAUU	-3.01 ± 0.23	-1.59 ± 0.36
CCCCAGCAAUAUUACGAUCU	-3.24 ± 0.13	-3.06 ± 0.22
CCCCAGCAAUAUUACGCAAG	-3.05 ± 0.14	-2.28 ± 0.19
CCCCAGCAAUAUUACGCCCC	-2.98 ± 0.38	–
CCCCAGCAAUAUUACGCCUG	-3.37 ± 0.19	-2.97 ± 0.27
CCCCAGCAAUAUUACGCGCA	-3.61 ± 0.27	-1.36 ± 0.21
CCCCAGCAAUAUUACGCUGU	-4 ± 0.21	-3.09 ± 0.18
CCCCAGCAAUAUUACGCUUU	-4.4 ± 0.25	-3.36 ± 0.21

— the supplement of paper PMC7877785
